In general, Kd refers to the concentration at which binding is half-saturated. Low values mean higher affinity, high ones lower affinity.

First the molecules themselves.
B1: target 1 G17C,A18G (mixed)
RNA 1: CACCCGUGCAAAAAUGCAGGGGUCUAAAACUGAGCGGAUAACCUCUCUAUGG
RNA 2: GGGAAUGGAUCCACAUCUACGAAUUCGUACCAUGCAGAGGUUAUCCGCUCACCGAGAUCGGAAGAGCACACGU
B2: target 1 A14U,A16C (mixed)
RNA 1: CACCCGUGCAAAAAUGCAGGGGUCUAAAACUGAGCGGAUAACCUCUCUAUGG
RNA 2: GGGAAUGGAUCCACAUCUACGAAUUCGUACCAUAGCGUGGUUAUCCGCUCACCGAGAUCGGAAGAGCACACGU
B3: target 2 MT 5'PFS CUC 3'PFS UGU (mixed)
RNA 1: CACCCGUGCAAAAUUGCAGGGGUCUAAAACCUUCUCCAAAUUGUUUCAUCCU
RNA 2: GGGAAUGGAUCCACAUCUACGAAUUCCUCAGGAUGAAACAAUUUGGAGAAGUGUAGAUCGGAAGAGCACACGU
B4: target 2 MT 5'PFS CAG 3'PFS UUC (mixed)
RNA 1: CACCCGUGCAAAAUUGCAGGGGUCUAAAACCUUCUCCAAAUUGUUUCAUCCU
RNA 2: GGGAAUGGAUCCACAUCUACGAAUUCCAGAGGAUGAAACAAUUUGGAGAAGUUCAGAUCGGAAGAGCACACGU
B5: target 2 MT 5'PFS UCA 3'PFS UAU (mixed)
RNA 1: CACCCGUGCAAAAUUGCAGGGGUCUAAAACCUUCUCCAAAUUGUUUCAUCCU
RNA 2: GGGAAUGGAUCCACAUCUACGAAUUCUCAAGGAUGAAACAAUUUGGAGAAGUAUAGAUCGGAAGAGCACACGU
B6: target 2 MT 5'PFS AGC 3'PFS UCC (mixed)
RNA 1: CACCCGUGCAAAAUUGCAGGGGUCUAAAACCUUCUCCAAAUUGUUUCAUCCU
RNA 2: GGGAAUGGAUCCACAUCUACGAAUUCAGCAGGAUGAAACAAUUUGGAGAAGUCCAGAUCGGAAGAGCACACGU
B7: target 2 MT 5'PFS CAA 3'PFS CUA (mixed)
RNA 1: CACCCGUGCAAAAUUGCAGGGGUCUAAAACCUUCUCCAAAUUGUUUCAUCCU
RNA 2: GGGAAUGGAUCCACAUCUACGAAUUCCAAAGGAUGAAACAAUUUGGAGAAGCUAAGAUCGGAAGAGCACACGU
B8: target 2 MT 5'PFS AGC 3'PFS UCA (mixed)
RNA 1: CACCCGUGCAAAAUUGCAGGGGUCUAAAACCUUCUCCAAAUUGUUUCAUCCU
RNA 2: GGGAAUGGAUCCACAUCUACGAAUUCAGCAGGAUGAAACAAUUUGGAGAAGUCAAGAUCGGAAGAGCACACGU
B9: target 2 MT 5'PFS UGA 3'PFS AAA (mixed)
RNA 1: CACCCGUGCAAAAUUGCAGGGGUCUAAAACCUUCUCCAAAUUGUUUCAUCCU
RNA 2: GGGAAUGGAUCCACAUCUACGAAUUCUGAAGGAUGAAACAAUUUGGAGAAGAAAAGAUCGGAAGAGCACACGU
B10: target 2 MT 5'PFS GGC 3'PFS CUC (mixed)
RNA 1: CACCCGUGCAAAAUUGCAGGGGUCUAAAACCUUCUCCAAAUUGUUUCAUCCU
RNA 2: GGGAAUGGAUCCACAUCUACGAAUUCGGCAGGAUGAAACAAUUUGGAGAAGCUCAGAUCGGAAGAGCACACGU
B11: target 2 MT 5'PFS AUA 3'PFS UUA (mixed)
RNA 1: CACCCGUGCAAAAUUGCAGGGGUCUAAAACCUUCUCCAAAUUGUUUCAUCCU
RNA 2: GGGAAUGGAUCCACAUCUACGAAUUCAUAAGGAUGAAACAAUUUGGAGAAGUUAAGAUCGGAAGAGCACACGU
B12: target 2 MT 5'PFS CAA 3'PFS CUC (mixed)
RNA 1: CACCCGUGCAAAAUUGCAGGGGUCUAAAACCUUCUCCAAAUUGUUUCAUCCU
RNA 2: GGGAAUGGAUCCACAUCUACGAAUUCCAAAGGAUGAAACAAUUUGGAGAAGCUCAGAUCGGAAGAGCACACGU
B13: target 2 MT 5'PFS CUC 3'PFS UGC (mixed)
RNA 1: CACCCGUGCAAAAUUGCAGGGGUCUAAAACCUUCUCCAAAUUGUUUCAUCCU
RNA 2: GGGAAUGGAUCCACAUCUACGAAUUCCUCAGGAUGAAACAAUUUGGAGAAGUGCAGAUCGGAAGAGCACACGU
B14: target 2 MT 5'PFS AGC 3'PFS UCG (mixed)
RNA 1: CACCCGUGCAAAAUUGCAGGGGUCUAAAACCUUCUCCAAAUUGUUUCAUCCU
RNA 2: GGGAAUGGAUCCACAUCUACGAAUUCAGCAGGAUGAAACAAUUUGGAGAAGUCGAGAUCGGAAGAGCACACGU
B15: target 2 MT 5'PFS UGA 3'PFS AAC (mixed)
RNA 1: CACCCGUGCAAAAUUGCAGGGGUCUAAAACCUUCUCCAAAUUGUUUCAUCCU
RNA 2: GGGAAUGGAUCCACAUCUACGAAUUCUGAAGGAUGAAACAAUUUGGAGAAGAACAGAUCGGAAGAGCACACGU
B16: target 2 MT 5'PFS CUC 3'PFS UGA (mixed)
RNA 1: CACCCGUGCAAAAUUGCAGGGGUCUAAAACCUUCUCCAAAUUGUUUCAUCCU
RNA 2: GGGAAUGGAUCCACAUCUACGAAUUCCUCAGGAUGAAACAAUUUGGAGAAGUGAAGAUCGGAAGAGCACACGU
B17: target 2 MT 5'PFS GGC 3'PFS CUG (mixed)
RNA 1: CACCCGUGCAAAAUUGCAGGGGUCUAAAACCUUCUCCAAAUUGUUUCAUCCU
RNA 2: GGGAAUGGAUCCACAUCUACGAAUUCGGCAGGAUGAAACAAUUUGGAGAAGCUGAGAUCGGAAGAGCACACGU
B18: target 2 MT 5'PFS AUA 3'PFS UUC (mixed)
RNA 1: CACCCGUGCAAAAUUGCAGGGGUCUAAAACCUUCUCCAAAUUGUUUCAUCCU
RNA 2: GGGAAUGGAUCCACAUCUACGAAUUCAUAAGGAUGAAACAAUUUGGAGAAGUUCAGAUCGGAAGAGCACACGU
B19: target 2 MT 5'PFS UCA 3'PFS UAC (mixed)
RNA 1: CACCCGUGCAAAAUUGCAGGGGUCUAAAACCUUCUCCAAAUUGUUUCAUCCU
RNA 2: GGGAAUGGAUCCACAUCUACGAAUUCUCAAGGAUGAAACAAUUUGGAGAAGUACAGAUCGGAAGAGCACACGU
B20: target 2 MT 5'PFS UUC 3'PFS CAC (mixed)
RNA 1: CACCCGUGCAAAAUUGCAGGGGUCUAAAACCUUCUCCAAAUUGUUUCAUCCU
RNA 2: GGGAAUGGAUCCACAUCUACGAAUUCUUCAGGAUGAAACAAUUUGGAGAAGCACAGAUCGGAAGAGCACACGU
B21: target 2 MT 5'PFS AGC 3'PFS UCU (mixed)
RNA 1: CACCCGUGCAAAAUUGCAGGGGUCUAAAACCUUCUCCAAAUUGUUUCAUCCU
RNA 2: GGGAAUGGAUCCACAUCUACGAAUUCAGCAGGAUGAAACAAUUUGGAGAAGUCUAGAUCGGAAGAGCACACGU
B22: target 2 MT 5'PFS GGC 3'PFS CUA (mixed)
RNA 1: CACCCGUGCAAAAUUGCAGGGGUCUAAAACCUUCUCCAAAUUGUUUCAUCCU
RNA 2: GGGAAUGGAUCCACAUCUACGAAUUCGGCAGGAUGAAACAAUUUGGAGAAGCUAAGAUCGGAAGAGCACACGU
B23: target 2 MT 5'PFS UGA 3'PFS AAU (mixed)
RNA 1: CACCCGUGCAAAAUUGCAGGGGUCUAAAACCUUCUCCAAAUUGUUUCAUCCU
RNA 2: GGGAAUGGAUCCACAUCUACGAAUUCUGAAGGAUGAAACAAUUUGGAGAAGAAUAGAUCGGAAGAGCACACGU
B24: target 2 MT 5'PFS UCA 3'PFS UAG (mixed)
RNA 1: CACCCGUGCAAAAUUGCAGGGGUCUAAAACCUUCUCCAAAUUGUUUCAUCCU
RNA 2: GGGAAUGGAUCCACAUCUACGAAUUCUCAAGGAUGAAACAAUUUGGAGAAGUAGAGAUCGGAAGAGCACACGU
B25: target 2 MT 5'PFS AAA 3'PFS ACA (mixed)
RNA 1: CACCCGUGCAAAAUUGCAGGGGUCUAAAACCUUCUCCAAAUUGUUUCAUCCU
RNA 2: GGGAAUGGAUCCACAUCUACGAAUUCAAAAGGAUGAAACAAUUUGGAGAAGACAAGAUCGGAAGAGCACACGU
B26: target 2 MT 5'PFS UGA 3'PFS AAG (mixed)
RNA 1: CACCCGUGCAAAAUUGCAGGGGUCUAAAACCUUCUCCAAAUUGUUUCAUCCU
RNA 2: GGGAAUGGAUCCACAUCUACGAAUUCUGAAGGAUGAAACAAUUUGGAGAAGAAGAGAUCGGAAGAGCACACGU
B27: target 2 MT 5'PFS UUC 3'PFS CAG (mixed)
RNA 1: CACCCGUGCAAAAUUGCAGGGGUCUAAAACCUUCUCCAAAUUGUUUCAUCCU
RNA 2: GGGAAUGGAUCCACAUCUACGAAUUCUUCAGGAUGAAACAAUUUGGAGAAGCAGAGAUCGGAAGAGCACACGU

The data set has as its target T1, EsCas13d, nuclease-dead (Eubacterium siraeum, UniProt B0MS50, R295A;H300A;R849A;H854A).
T1 sequence: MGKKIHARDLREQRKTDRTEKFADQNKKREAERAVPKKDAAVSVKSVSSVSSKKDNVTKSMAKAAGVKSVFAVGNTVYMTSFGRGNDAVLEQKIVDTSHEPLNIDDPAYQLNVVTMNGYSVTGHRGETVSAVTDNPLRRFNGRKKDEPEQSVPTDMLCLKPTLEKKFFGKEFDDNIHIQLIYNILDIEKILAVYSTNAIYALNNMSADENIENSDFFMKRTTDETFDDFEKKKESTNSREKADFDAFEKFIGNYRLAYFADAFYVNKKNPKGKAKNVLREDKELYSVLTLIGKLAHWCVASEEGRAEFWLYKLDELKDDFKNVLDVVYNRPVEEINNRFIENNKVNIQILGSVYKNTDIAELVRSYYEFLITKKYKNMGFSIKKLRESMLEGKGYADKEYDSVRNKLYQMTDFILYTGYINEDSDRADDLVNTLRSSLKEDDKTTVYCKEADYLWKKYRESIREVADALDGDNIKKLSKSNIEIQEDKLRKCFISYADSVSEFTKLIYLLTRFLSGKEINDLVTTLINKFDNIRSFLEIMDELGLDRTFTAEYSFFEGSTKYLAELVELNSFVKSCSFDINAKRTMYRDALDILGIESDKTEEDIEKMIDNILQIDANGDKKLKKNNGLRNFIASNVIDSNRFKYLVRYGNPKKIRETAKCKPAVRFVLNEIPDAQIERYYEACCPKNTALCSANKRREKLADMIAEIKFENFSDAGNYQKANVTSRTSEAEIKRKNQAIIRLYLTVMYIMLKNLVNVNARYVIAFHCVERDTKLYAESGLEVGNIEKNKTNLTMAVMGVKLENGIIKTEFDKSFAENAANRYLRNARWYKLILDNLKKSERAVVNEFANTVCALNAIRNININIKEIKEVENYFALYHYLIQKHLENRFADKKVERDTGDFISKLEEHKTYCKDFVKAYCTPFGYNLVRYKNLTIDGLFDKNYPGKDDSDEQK
Put plainly: crRNA (strand 1, pre-loaded); Mg2+; 40 mM Tris-HCl pH 7.5, 150 mM NaCl, 6 mM MgCl2, 1 mM DTT, 0.1% Tween-20, 0.2 mg/ml BSA; 25 C; 10 min per concentration, then washed. Particulars: tags: His6-TwinStrep-SUMO cleaved; N-terminal SNAP kept (SNAP-Surface 488); label: 3' end held by stalled T7 RNA polymerase.
B1: the equilibrium dissociation constant (Kd) is ~90 nM.
B2: the equilibrium dissociation constant (Kd) turned out to be 100 ± 40 nM.
For B3 the value was 2.23 ± 0.19 nM; for B4, 19 ± 8 nM.
With B5 the figure was 5.1 ± 0.7 nM.
For B6 the value was 23 ± 4 nM.
With B7, the Kd is ~5 nM.
With B8 the figure was 27 ± 10 nM.
For B9 the value was 9 ± 2.9 nM; for B10, 13.2 ± 1.2 nM; for B11, 10.7 ± 1.7 nM.
For B12 the value was 5.3 ± 2.1 nM; for B13, 1.98 ± 0.26 nM; for B14, 14.3 ± 3.2 nM.
Take B15: the Kd came to 10.1 ± 2.4 nM.
Molecule B16 showed a dissociation constant (Kd) of 1.66 ± 0.33 nM.
With B17 the figure was 12.9 ± 1.3 nM; with B18, 13.4 ± 2.4 nM; with B19, 5.7 ± 0.9 nM.
For B20 the value was 13 ± 4 nM.
With B21 the figure was 16.1 ± 2.8 nM; with B22, 12 ± 1.9 nM; with B23, 6.2 ± 0.8 nM.
The molecule B24 had an equilibrium dissociation constant (Kd) of 3.9 ± 0.5 nM.
With B25 the figure was 7.8 ± 2.2 nM; with B26, 7.4 ± 0.9 nM.
For B27 the value was 6.5 ± 1.4 nM.

The values above are taken from article PMC10786891, “Massively parallel profiling of RNA-targeting CRISPR-Cas13d”.
